The source of these data is patent publication US20230250135A1.

Holding throughout (conditions): remark: other sources report otherwise
The target in assay [1] is UFV161721 (influenza A virus A/Hong Kong/1/68 (H3N2)). Kind of assay: Binding-AlphaLISA, Expi293F supernatant, normalized to UFV161333. In general terms: In Alpha technology, singlet oxygen from a donor bead excites a nearby acceptor bead.
Assay [2] addresses UFV161715 (influenza A virus A/Hong Kong/1/68 (H3N2)). The description is as above.
Assay [3] concerns the target UFV161453 (influenza A virus A/Hong Kong/1/68 (H3N2)).
Assay [4] has as its target UFV161333 (influenza A virus A/Hong Kong/1/68 (H3N2)). Kind of assay: Binding-AlphaLISA, Expi293F supernatant, normalized to UFV161686.

B1: CR9114 (antibody, V domains shown)
VH: QVQLVQSGAEVKKPGSSVKVSCKSSGGTSNNYAISWVRQAPGQGLDWMGGISPIFGSTAYAQKFQGRVTISADIFSNTAYMELNSLTSEDTAVYFCARHGNYYYYSGMDVWGQGTTVTVSS
VL: SYVLTQPPAVSGTPGQRVTISCSGSDSNIGRRSVNWYQQFPGTAPKLLIYSNDQRPSVVPDRFSGSKSGTSASLAISGLQSEDEAEYYCAAWDDSLKGAVFGGGTQLTVL
As to B1, the binding relative to reference UFV161333 in assay [1] and in assay [2] was 145% throughout. The molecule further returned a binding relative to reference UFV161454 in assay [3] of 61%. Besides, the fold increase in binding relative to reference UFV161686 in assay [4] came to 5 fold.
